Where “and” joins values, the source holds several entries; their conditions need not be identical. Equal values may be shown once.
Biological target: IVIg (Octagam)

B1: pCART229 (protein)
chain: MDDYQRNATEAYAKEVPHQITSVWTKGVTPPEQFTQGEDVIHAPYLAHQGWYDITKAFDGKDNLLCGAATAGNMLHWWFDQNKTEIEAYLSKHPEKQKIIFRNQELFDLKAAIDTKDSQTNSQLFNYFRDKAFPNLSARQLGVMPDLVLDMFINGYYLNVFKTQSTDVNRPYQDKDKRGGIFDAVFTRGNQTTLLTARHDLKNKGLNDISTIIKQELTEGRALALSHTYANVSISHVINLWGADFNAEGNLEAIYVTDSDANASIGMKKYFVGINAHGHVAISAKKIEGENIGAQVLGLFTLSSGKDIWQKLSGGGHHHHHH
Conc. of enzyme for 1st IgG heavy chain cleavage (IgG to scIgG), SDS-PAGE: 1900 ng/mL
Conc. of enzyme for 2nd IgG heavy chain cleavage (scIgG to F(ab')2), SDS-PAGE: 7500 ng/mL

B2: pCART210 (protein)
chain: MDDYQRNATEAYAKEVPHQITSVWTKGVTPPEQFTQGEDVIHAPYLANQGWYDITKAFDGKDNLLCGAATAGNMLHWWFDQNKTEIEAYLSKHPEKQKIIFRNQELFDLKEAIRTKDSQTNSQLFEYFRDKAFPYLSARQLGVMPDLVLDMFINGYYLNVFKTQSTDVKRPYQDKDKRGGIFDAVFTRGNQTTLLTARHDLKNKGLNDISTIIKEELTKGRALALSHTYANVSISHVINLWGADFNAEGNLEAIYVTDSDANASIGMKKYFVGINKHGHVAISAKKIEGENIGAQVLGLFTLSSGKDIWQKLNGGGHHHHHH
IVIg cleavage of the 1st heavy chain, SDS-PAGE titration: pCART207, pCART208 and pCART210 all show increased efficacy compared to IdeS (BX1001865) in the cleavage of the 1st IgG heavy chain (lane 6)

B3: pCART203 (protein)
chain: MDDYQRNATEAYAKEVPHQITSVWTKGVTPPEQFTQGEDVIHAPYLAHQGWYDITKAFDGKDNLLCGAATAGNMLHWWFDQNKTEIEAYLSKHPEKQKIIFNNQELFDLKAAIDTKDSQTNSQLFNYFRDKAFPNLSARQLGVMPDLVLDMFINGYYLNVFKTQSTDVNRPYQDKDKRGGIFDAVFTRGDQTTLLTARHDLKNKGLNDISTIIKQELTEGRALALSHTYANVSISHVINLWGADFNAEGNLEAIYVTDSDANASIGMKKYFVGINAHGHVAISAKKIEGENIGAQVLGLFTLSSGKDIWQKLSGGGHHHHHH
IVIg cleavage, SDS-PAGE titration: pCART203 shows a capacity comparable to IdeS (BX1001865 and pCART124) at the 2nd cleavage site (lane 2, 3 and 4) and a higher cleavage efficacy than both IdeS and IdeZ (pCART144) at the 1st cleavage site (lane 7)
IVIg cleavage, SDS-PAGE titration: enzyme concentration at which cleavage is seen: Enzyme pCART203 demonstrates IgG cleavage at 0.5 ng/ml (lane 7)
IVIg cleavage, SDS-PAGE titration: enzyme concentration giving an intense scIgG band: Concentrations of 0.94 ng/ml (lane 6) for pCART202, pCART203 and pCART204 result in an intense band of scIgG (arrow 2), with most of the IgG single cleaved
IVIg cleavage, SDS-PAGE titration: enzyme concentration giving mainly scIgG: has generated mainly scIgG (arrow 2) at about 0.9 ng/ml (lane 6)
IVIg cleavage, SDS-PAGE titration: fold efficacy over IdeS: This corresponds to a 2 fold increased efficacy compared to IdeS

B4: pCART208 (protein)
chain: MDDYQRNATEAYAKEVPHQITSVWTKGVTPPEQFTQGEDVIHAPYLAHQGWYDITKAFDGKDNLLCGAATAGNMLHWWFDQNKTEIEAYLSKHPEKQKIIIRNQELFDLKAAIDTKDSQTNSQLFNYFRDKAFPNLSARQLGVMPDLVLDMFINGYYLNVFKTQSTDVNRPYQDKDKRGGIFDAVFTRGDQTTLLTARHDLKNKGLNDISTIIKQELTEGRALALSHTYANVSISHVINLWGADFNAEGNLEAIYVTDSDANASIGMKKYFVGINAHGHVAISAKKIEGENIGAQVLGLFTLSSGKDIWQKLSGGGHHHHHH
IVIg cleavage of the 1st heavy chain, SDS-PAGE titration: pCART207, pCART208 and pCART210 all show increased efficacy compared to IdeS (BX1001865) in the cleavage of the 1st IgG heavy chain (lane 6)
IVIg cleavage of the 1st heavy chain, SDS-PAGE titration: fold efficacy over IdeS: In the case of pCART208 this is approximately a 4 fold increase in cleavage efficacy of the 1st heavy chain
IVIg cleavage of the 2nd heavy chain, SDS-PAGE titration: enzyme concentration giving a dominating F(ab')2 band: pCART208 shows an improved cleavage efficacy, resulting in a dominating F(ab')2 band (arrow 3) at 1.9 ng/ml (lane 5), whereas IdeS (BX1001865) has only generated scIgG (arrow 2) at the same concentration

B5: pCART206 (protein)
chain: MDDYQRNATEAYAKEVPHQITSVWTKGVTPPEQFTQGEDVIHAPYLAHQGWYDITKAFDGKDNLLCGAATAGNMLHWWFDQNKTEIEAYLSKHPEKQKIIINNQELFDLKAAIDTKDSQTNSQLFNYFRDKAFPNLSARQLGVMPDLVLDMFINGYYLNVFKTQSTDVNRPYQDKDKRGGIFDAVFTRGDQTTLLTARHDLKNKGLNDISTIIKQELTEGRALALSHTYANVSISHVINLWGADFNAEGNLEAIYVTDSDANASIGMKKYFVGINAHGHVAISAKKIEGENIGAQVLGLFTLSSGKDIWQKLSGGGHHHHHH
IVIg cleavage in the presence of anti-IdeS neutralizing antibodies, SDS-PAGE titration: A similar result was obtained for pCART206 (data not shown)

B6: IdeS BX1001865 (protein)
chain: DSFSANQEIRYSEVTPYHVTSVWTKGVTPPANFTQGEDVFHAPYVANQGWYDITKTFNGKDDLLCGAATAGNMLHWWFDQNKDQIKRYLEEHPEKQKINFNGEQMFDVKEAIDTKNHQLDSKLFEYFKEKAFPYLSTKHLGVFPDHVIDMFINGYRLSLTNHGPTPVKEGSKDPRGGIFDAVFTRGDQSKLLTSRHDFKEKNLKEISDLIKKELTEGKALGLSHTYANVRINHVINLWGADFDSNGNLKAIYVTDSDSNASIGMKKYFVGVNSAGKVAISAKEIKEDNIGAQVLGLFTLSTGQDSWNQTN
Conc. of enzyme for 1st IgG heavy chain cleavage (IgG to scIgG), SDS-PAGE: 1900 ng/mL
Conc. of enzyme for 2nd IgG heavy chain cleavage (scIgG to F(ab')2), SDS-PAGE: 6000 ng/mL and 7500 ng/mL
IVIg cleavage, SDS-PAGE titration: enzyme concentration at which cleavage starts: IdeS, which starts the cleavage at 0.9 ng/ml (lane 6) and has a dominating scIgG band at 1.9 ng/ml (lane 5)
IVIg cleavage, SDS-PAGE titration: enzyme concentration giving a dominating scIgG band: IdeS, which starts the cleavage at 0.9 ng/ml (lane 6) and has a dominating scIgG band at 1.9 ng/ml (lane 5)
IVIg cleavage, SDS-PAGE titration: enzyme concentration giving mainly scIgG: IdeS (BX1001865) has generated mainly scIgG (arrow 2) at a concentration of 1.9 ng/ml (lane 5)
IVIg cleavage, SDS-PAGE titration: share of scIgG at 0.94 ng/ml enzyme: the same concentration of IdeS results in less than 50% scIgG (lane 6)

B7: pCART204 (protein)
chain: MDDYQRNATEAYAKEVPHQITSVWTKGVTPPEQFRYNNEDVIHAPYLAHQGWYDITKAFDGKDNLLCGAATAGNMLHWWFDQNKTEIEAYLSKHPEKQKIIFNNQELFDLKAAIDTKDSQTNSQLFNYFRDKAFPNLSARQLGVMPDLVLDMFINGYYLNVFKTQSTDVNRPYQDKDKRGGIFDAVFTRGDQTTLLTARHDLKNKGLNDISTIIKQELTEGRALALSHTYANVSISHVINLWGADFNAEGNLEAIYVTDSDANASIGMKKYFVGINAHGHVAISAKKIEGENIGAQVLGLFTLSSGKDIWQKLSGGGHHHHHH
IVIg cleavage, SDS-PAGE titration: enzyme concentration giving an intense scIgG band: Concentrations of 0.94 ng/ml (lane 6) for pCART202, pCART203 and pCART204 result in an intense band of scIgG (arrow 2), with most of the IgG single cleaved

B8: pCART144 (IdeZ with N terminal methionine and histidine tag) (protein)
chain: MDDYQRNATEAYAKEVPHQITSVWTKGVTPLTPEQFRYNNEDVIHAPYLAHQGWYDITKAFDGKDNLLCGAATAGNMLHWWFDQNKTEIEAYLSKHPEKQKIIFNNQELFDLKAAIDTKDSQTNSQLFNYFRDKAFPNLSARQLGVMPDLVLDMFINGYYLNVFKTQSTDVNRPYQDKDKRGGIFDAVFTRGDQTTLLTARHDLKNKGLNDISTIIKQELTEGRALALSHTYANVSISHVINLWGADFNAEGNLEAIYVTDSDANASIGMKKYFVGINAHGHVAISAKKIEGENIGAQVLGLFTLSSGKDIWQKLSGGGHHHHHH
IVIg cleavage of the 2nd heavy chain, SDS-PAGE titration: pCART144 (IdeZ) is worse in cleavage of the 2nd heavy chain compared to IdeS (BX1001865 and pCART124)
IVIg cleavage, SDS-PAGE titration: shows more effective cleavage at the 1st IgG heavy chain (lane 6) compared to IdeS (BX1001865 and pCART124)

B9: pCART124 (IdeS with N terminal methionine and histidine tag) (protein)
chain: MDSFSANQEIRYSEVTPYHVTSVWTKGVTPPANFTQGEDVFHAPYVANQGWYDITKTFNGKDDLLCGAATAGNMLHWWFDQNKDQIKRYLEEHPEKQKINFNGEQMFDVKEAIDTKNHQLDSKLFEYFKEKAFPYLSTKHLGVFPDHVIDMFINGYRLSLTNHGPTPVKEGSKDPRGGIFDAVFTRGDQSKLLTSRHDFKEKNLKEISDLIKKELTEGKALGLSHTYANVRINHVINLWGADFDSNGNLKAIYVTDSDSNASIGMKKYFVGVNSAGKVAISAKEIKEDNIGAQVLGLFTLSTGQDSWNQTNGGGHHHHHH
Conc. of enzyme for 1st IgG heavy chain cleavage (IgG to scIgG), SDS-PAGE: 1900 ng/mL
Conc. of enzyme for 2nd IgG heavy chain cleavage (scIgG to F(ab')2), SDS-PAGE: 6000 ng/mL and 7500 ng/mL
IVIg cleavage, SDS-PAGE titration: enzyme concentration at which cleavage starts: IdeS, which starts the cleavage at 0.9 ng/ml (lane 6) and has a dominating scIgG band at 1.9 ng/ml (lane 5)
IVIg cleavage, SDS-PAGE titration: enzyme concentration giving a dominating scIgG band: IdeS, which starts the cleavage at 0.9 ng/ml (lane 6) and has a dominating scIgG band at 1.9 ng/ml (lane 5)
IVIg cleavage, SDS-PAGE titration: share of scIgG at 0.94 ng/ml enzyme: the same concentration of IdeS results in less than 50% scIgG (lane 6)

B10: pCART202 (protein)
chain: MDDYQRNATEAYAKEVPHQITSVWTKGVTPLTPEQFTQGEDVIHAPYLAHQGWYDITKAFDGKDNLLCGAATAGNMLHWWFDQNKTEIEAYLSKHPEKQKIIFNNQELFDLKAAIDTKDSQTNSQLFNYFRDKAFPNLSARQLGVMPDLVLDMFINGYYLNVFKTQSTDVNRPYQDKDKRGGIFDAVFTRGDQTTLLTARHDLKNKGLNDISTIIKQELTEGRALALSHTYANVSISHVINLWGADFNAEGNLEAIYVTDSDANASIGMKKYFVGINAHGHVAISAKKIEGENIGAQVLGLFTLSSGKDIWQKLSGGGHHHHHH
IVIg cleavage, SDS-PAGE titration: enzyme concentration giving an intense scIgG band: Concentrations of 0.94 ng/ml (lane 6) for pCART202, pCART203 and pCART204 result in an intense band of scIgG (arrow 2), with most of the IgG single cleaved

Source: patent US20230302100
